From the DeepSol protein solubility set

test: soluble on expression in E. coli; label from the status in PepcDB or PDB records

Sequence	soluble on expression in E. coli
MSLTPEIPPKNFTPHLPEDYDARISGVLPYYSSFHQETINLVKSLPSSPKIWMDTGCGTGSLINKAIEEFLDTKFLLLDPSESMLEQAKGKLSFYPDGKVEFLKASSTQEFSQELEEKPDVITAIQCHHYLSLEDRSRATRVCYNLLKEGGIYITFENIRPLTEEGVAVGKRYWGKFQSLHGRKEKEIQTHLERFDTEYFPITVEEHLKLLRDTGFRTVELFWYSYMQAGFYCIKEGHHHHHH	soluble
MAHHHHHHMKKSGKGRIKLKIQINTEEEENKENIIYENKNKKRKGSDISDDNDESIEKFKDLDNSYASDRKQKEDNDLEKKIISIISQLTKITCICEDKKNNINNLENEKICKKLIKQMYKYEKYLLQFSNYINENNNHNLDDITFPNGLIKAVDNYINPNVWIYQYLLLETKKQNDSYRNLIQNISTFDSTLKHKILNNDSNHLVNPVYPPLDENLLNSLNNTQQNYYKNVHIPKELSHYYLKSRNKTKED	not soluble
MSLTTMAEHFLTLLVVPAIKKDYGSQEDFTQVWNTTMKGLKCCGFTNYTDFEDSPYFKENSAFPPFCCNDNVTNTANETCTKQKAHDQKVEGCFNQLLYDIRTNAVTVGEGHHHHHH	not soluble
MSLTERPRDCRPVVRRARTSDVPAIKQLVDTYAGKILLEKNLVTLYEAVQEFWVAEHPDLYGKVVGCGALHVLWSDLGEIRTVAVDPAMTGHGIGHAIVDRLLQVARDLQLQRVFVLTFETEFFARHGFTEIEGTPVTAEVFDEMCRSYDIGVAEFLDLSYVKPNILGNSRMLLVLEGHHHHHH	soluble
VLGVTPDTEVVKPTRTQAERTAAMRTKLLDAAVDSLVELGYARTTTQGIARRAGVSRGAQLHHFPTKESLVVAAVEHLVDKRMEEILAADVDAGRGVDVLADAFSGPLFYAALELWVAARTDPALYEATVPLERKVNDALRRGSAEVFGDRFDADTIELSIELVRGLAVSALFRTPEAEQSLRARLLPVWESKVEKS	not soluble
MGSDKIHHHHHHMDIKQLKYFVEIVKSGFNLSIASKTLHISQPALSQIIKNFEESEDVYLFERYKGRLNGLTPAGERFYVNAEHIINEYKNMMEDLREDSVQFKGKVRIGIPPLILGIAFSDVVAQLVANNPDIEFDIVEKGAYDLNRMLILQELDYAVLLHPHKIDKSVVTEHVLQEDELTAFLNINHPLAKKDKIDWNDLNEQLLAIFNPTFMIHHKLMQKFTDENVKLKRYIMSGSWDFLLLSTTNSDFITILPSPVHDFFENSKIIEKPFNHPITWKVILCRPKKERYSHVDQHVFKFIIDFFSKKNS	not soluble
MGSDKIHHHHHHMEKDRHEIEIFKIDQMFIGDSQEELIKQGEGRRKEHPIAAISTFNPVKRDVFQLIKLTEEKMIPELLGMRHKRMMQNPFSYFRATAGIMEKDLRQFPDGQSHIPVIICGDSHLTNFGFFASPERHLLFGLNDFDEARIGNWEFDLKRLLTSVVLIGRINGYPKEQLDGILAESVHSYRRGIKYANSLPLLDRFNLSYSVDDLLGQMTDNEQMKRVLLKVADRAPKKNSDAVVKKFTEKTEDGRLRFKKNPPRARRVSQKVYAELMASLEDYQKSVADDIRVLLINYEVTDIIRYSVGVGSWGTRCYLALLTGKDGSHLVLQIKEALPLRYNLSALTVEESQAQGKGEGKRIITAQRVLQTYHDPFLGAMEAGGRSFYVRQFRDMKDSIDPLNLDQESFSAYCNMCAFILAIAHYQSPTAPMIYGYVHKQKELDTGLAHWAVKYADQMEADYTCFAKYLQGEGDEE	not soluble
MAHHHHHHMSKKNKSFYENDGSGRDTFVNYAGAYWMNPLPAGTFFKSRGHLTQSSVPTENGTSLVMDDSTPYPGRTLFGKSRYGTTILAAGQVATLDAPADSQSGHSAGMGSTSRSTANPLAGTDADAQEFDGEATALEHISFDVSNPERRLRQPGHSTTGLEGTGGGSTYNGVKEPWTAPNAVDSTLLRLAPAYESTCHYHLRTGLFYTEDAAPPHEMTLPDKGVTWGRSRYY	soluble
MAHHHHHHMQSDARELNPGRADFWEHFYDQEDGRLRQKELHHRKAHEIVERGSLMNHYEWFMQYAMYEAALKACLRAVPTVLSKDGATRILHMGCGNSDFCDHVEGLLSDLHPVPSSSSRASEVLNVDICESIVAHLALHFPSRLYAVGNCCDLHVSSSPSMPFSSNAAWYSRDPALRLRKVLQSSVDVVFDKGTADALLSSFAGEYNPNMEAYMGEALKVLRPGGLLFLISINSEDVLSPYALSADDGLKSFHLAYTDVIELGAHDLRHLRVETLGSRYSCYGYAVVASAVAE	soluble
SSWIPFKIGQPKKQIVSKTVERDFEREYGKLQQLEEQTKRLQKDMKKSTDADLAMSKSAVKISLDLLSNPLCEQDQDFLRMVTALDTAMKRMDAFNQEKVNQIQKTVIEPLKKFGSIFPSLNMAVKRREQALQDYGRLQAKVEKYEEKEKTGPVLAKLHQAREELRPVREDFEAKNKQLLDEMPRFYNSRLDYFQPSFESLIRAQVIYYSEMHKIFGDLTQQLDQPGHSDEHRERENETKLSELRALSIVADD	soluble
MAHHHHHHMSQLYRGRSYQNILRKLPRNLVVFDGHCLMCQARVRHVLERNFSYFSFIRIMQGVDPVKLEANKMLFCSFDSVEWREVRRNFPHLLNDADGVVLIEKVPSKTASFLSRVRQGQKQRRQQGRTGGMNSSEEKRGLKNFFQTNNFSFPLASSSVTTPRGLAGGFDGVEEDVDIVVSVKYEAVCRIGMKLDRWLLRTLFRCLYYMLPRWMGDRWYDYILRRRQLWGTSEEDAVRYPKRVPGLKERTWKL	not soluble
MSLTSYSYRQSSATSSFGGLGGGSVRFGPGVAFRAPSIHGGSGGRGVSVSSARFVSSSSSGAYGGGYGGVLTASDGLLAGNEKLTMQNLNDRLASYLDKVRALEAANGELEVKIRDWYQKQGPGPSRDYSHYYTTIQDLRDKILGATIENSRIVLQIDNARLAADDFRTKFETEQALRMSVEADINGLRRVLDELTLARTDLEMQIEGLKEELAYLKKNHEEEISTLRGQVGGQVSVEVDSAPGTDLAKILSDMRSQYEVMAEQNRKDAEAWFTSRTEELNREVAGHTEQLQMSRSEVTDLRRTLQGLEIELQSQLSMKAALEDTLAETEARFGAQLAHIQALISGIEAQLGDVRADSERQNQEYQRLMDIKSRLEQEIATYRSLLEGQEDHYNNLSASKEGHHHHHH	not soluble
MGSDKIHHHHHHMVRIALDPTPFHHDYDLLDFPDVTARLGYEYMQLTPHVDFGPFFRHPKADDDLVAALKKRAKDAGVTIPALLPVQRISWPEETQRVAAVRNIKRIIQLAVDLEVDTLNTEFSGRPERSEDSEDAFYRSMEELLPILEKEGIKFNIDPHPDDFVENGIEAWRVIRGLNSKQVGFVYVAPHSFHMGDQAEAILPAVGDRLGAVYLSDTFDHHKSHGLRYITNPPGNAVRVHQHLKIGDGDVNFEEIFSLLRSTGYLDREDALLVSNVFAEDEAADEVSRYQLEKIRSLIENA	not soluble
MRVLHVCSELFPLLKTGGLADVIGALPAAQLAEGADVRIILPAFPDLRRGIPETVLVREIDTFAGRVALRYGHYRGIGIYLIDAPALYDRAGSPYHDASLYAYSDNYLRFALLGWMACELACGLDGYWRPEVVHAHDWHAGLTCAYLAARGRPARSVFTVHNLAYQGLFSADHLSELHLPAEFFQIYGLEFYGQISYLKAGLFFADHVTTVSPTYAKEITQPAFGYGMEGLLQALARQGRLTGILNGVDSDIWDPQSDTLLPTRYDAENLQAKAINKTHLQTAMGLQLAENKPIFAVVSRLTVQKGLDLVLEALPELLALGGQLVVLGSGDATLQEAFLAAAAEHSGQVGVQIGYHEAFSHRIIAGSDVILVPSRFEPCGLTQLYGLKYGTLPLVRHTGGLADTVVDCALENLADGSASGFVFNECEAQALVKAIRRAFVLWSRPKHWRHVQRHAMRLDFGWQLAAVDYLSLYRRL	not soluble
MAHHHHHHMLCTFTTLHERIRILTDAHQLILPEELEAEFPDEAQLIKSMLAANPLQRPQIRKFLRQINKLIVALEAQESDEEAEKPPPPSPLDGTEHSESRNGNDEAATAALVDDSASALATATATSKLGNTPLSTSVAAASSSRGRPVAADLASGGHADSFSDVQDSFSSPLGEQKSRVALLPVFHSEAATGTSVAATSPMAATTSVHDTNAASAGKHVTRRGDSLASLHASTMVKRGNTYHHRRRGSASPNMEAEIGRLHICEMVATGSASRQGFFANDPYGLPTTPVMYTEDADLSTILKRDLQDRTVSAPD	not soluble
GPGSMPADKSYALKQVQTFGKKKTAIAVATVTKAAQCNIKVNGVPLQQILPDTLRAKIMEAITVVGSKYYSRLRIDVAVHGGGQVSQAYAARQAIAKGLIAFFQKYHNEVEKAALKDKFLAYDKFLLIADPRRCEPKKWGRHSARTRFTKSYR	soluble
MAKAKAAPKKSVKKVEKSPSPEDSGIRRSGRQRIEMGKYEEGFDRHELEMVLRASLNEANQQGIKVPSTSSTASASAPAPVKKEIKPKNKPAPVPVVEKKRTIPSKKERDAERKALAAAAAAAATLTSMKKAPIKKSVPSTSSEADSTTPKKKGSAVKAKKVTIKTPSSEPAELTSSAAPVPVAVPEVPTAEATTSATTTPTTTNATIVKKEETKAEQPVKKVVKKKAISKKPPTTTNVTSTSDSSAAAAAAKKKKKPVVPKLSTKPTKQYLENEKQMRLMATQKCTYKEPKSLEKRIYFIPFYSLKLAKKNDQISYLNLISFIHKNLFFNF	soluble
MSLNKKDVIRTLERIAIYMELKGENPFKISAYRKAALALEQDERTLDEIEDPATLKGIGKGTAEVILDLKETGESSLMHELKESVPAGLIPLLQLPSLGGKKIAKLYQELGVIDLATLKEACEQGNVRELAGFGKKSEEKILAAIAELSNKPERFPIAFVLPIAVEIEAQLKEMDSIHRFSRAGSLRRMRETVKDLDYIISTDDPEAVREQLLQLKHMGKTIASGDTKVSVELEYDYPISVDFRLVKDEAFATTLHHFTGSKEHNVKMRQLAKARGEKISEYGVENTETGDVKTFADESAFFKHFGLTYIPPEAREDQGEVELFKEAHALVTLEDIRADLHMHTTWSDGAHSIEEMAEAARQRGYEYIAITDHSKFLRVANGLSEERLKEQHAKIRELNERYDDFTIFTGIEMDILPDGTLDYEDPILAEVDFVIASIHSSFSQPREKIMDRLKTALVNHHVDLIAHPTGRLIGRREGYDVDVDMLIELAKETNTALELNANPNRLDLNSEALKKAQEQGVVMAINTDSHTKETFSYMEYGVGVARKGLIRPETVINTWPLERFCAFLRRHQPEGHHHHHH	soluble
KLKNYKTSELMIQSSNNYKLESLFITSNIKTRDTMILVHGIGSSYYEMLKVAYRYLDKGYNVLVYNQRNTGNSGGDNYTFGLYERYDLDSLVKFVKNKFPEGRLGVHGFSMGAGTAAMHSEINSKDDKVDFYILDSPYSEMKDAIRMGVLEKRIPDILINYVVTCGDLYNKFKSGFWYSDVKPYESVEKSNVPILFIHGTKDTVCNYQNSKKMYDLVKHDKKDLWLIEGIGHVDGFEHDSTVYFNKIFKFIDSNVLSDKS	not soluble
MQSVDVAIVGGGMVGLAVACGLQGSGLRVAVLEQRVPEPLAVDALPQLRVSAINAASEKLLTRLGVWQDILARRASCYHGMEVWDKDSFGHISFDDQSMGYSHLGHIVENSVIHYALWNKAQQSSDITLLAPTELQQVAWGENETFLTLKDGSMLTARLVIGADGANSWLRNKADIPLTFWDYQHHALVATIRTEEPHDAVARQVFHGEGILAFLPLSDPHLCSIVWSLSPEEAQRMQQASEDEFNRALNIAFDNRLGLCKVESARQVFPLTGRYACQFAAHRLALVGDAAHTIHPLAGQGVNLGFMDAAELIAELKRLHRQGKDIGQYIYLRRYERSRKHSAALMLAGMQGFRDLFSGANPAKKLLRDIGLKLADTLPGVKPQLIRQAMGLNDLPEWLRLEHHHHHH	soluble
MTAGFNFNNYAAGFCSATPALRGNEVNMDTLNLGNNESLVCGVFPNQDGTFTAMTYTKSKTFKTEAGARRWLARNTD	soluble
